The target of this test is human CD47/IAP receptor on HUCB-EPC (human) (UniProt Q08722). Kind of test: cell-based or functional assay.

This passage reports HUCB-EPC adhesion onto gelatin-vitronectin after pre-treatment with 40 µg/ml, compared with BSA and HUCB-EPC adhesion onto gelatin-vitronectin after pre-treatment with 40 µg/ml, compared with control mouse IgG1 results from patent publication US20100173352A1.

B1: mouse monoclonal anti-human CD47 IgG1 (clone B6H12) (antibody, from another filing, V domains shown)
VH: EVQLVESGGDLVKPGGSLKLSCAASGFTFSGYGMSWVRQTPDKRLEWVATITSGGTYTYYPDSVKGRFTISRDNAKNTLYLQIDSLKSEDTAIYFCARSLAGNAMDYWGQGTSVTVSS
VL: DIVMTQSPATLSVTPGDRVSLSCRASQTISDYLHWYQQKSHESPRLLIKFASQSISGIPSRFSGSGSGSDFTLSINSVEPEDVGVYYCQNGHGFPRTFGGGTKLEIK
B1: the HUCB-EPC adhesion onto gelatin-vitronectin after pre-treatment with 40 µg/ml, compared with BSA came to 14.6% and the HUCB-EPC adhesion onto gelatin-vitronectin after pre-treatment with 40 µg/ml, compared with control mouse IgG1 came to 16.6%.
